Reference: patent US20160160238

How the values were obtained:
Test in all cases: cell_activity
[1] = system: TALEN ssNF1ex42.2 left (synthetic (Xanthomonas TALE-FokI)?); settings: HDR by RFLP, pig fibroblasts, 3 days 30 C; pair with P4, 16 bp spacer
[2] = system: TALEN ssTP53 E6 right (synthetic (Xanthomonas TALE-FokI)?); settings: Surveyor (Cel) assay, co-transfected with ssNF1 42.3; pair with P7, 16 bp spacer
[3] = system: TALEN ssNF1ex42.2 right (synthetic (Xanthomonas TALE-FokI)?); settings: HDR by RFLP, pig fibroblasts, 3 days 30 C; pair with P3, 16 bp spacer
[4] = system: TALEN ssNF1ex42.3 right (synthetic (Xanthomonas TALE-FokI)?); settings: HDR by RFLP, pig fibroblasts, 3 days 30 C; pair with P5, 16 bp spacer; 25.5% when co-transfected with ssTP53 E6
[5] = system: TALEN ssNF1ex42.3 left (synthetic (Xanthomonas TALE-FokI)?); settings: HDR by RFLP, pig fibroblasts, 3 days 30 C; pair with P6, 16 bp spacer; 25.5% when co-transfected with ssTP53 E6
[6] = system: TALEN ssTP53 E6 left (synthetic (Xanthomonas TALE-FokI)?); settings: Surveyor (Cel) assay, co-transfected with ssNF1 42.3; pair with P8, 16 bp spacer
[7] = system: TALEN ssNF1ex42.1 right (synthetic (Xanthomonas TALE-FokI)?); settings: HDR by RFLP, pig fibroblasts, 3 days 30 C; pair with P1, 16 bp spacer
[8] = system: TALEN ssNF1ex42.1 left (synthetic (Xanthomonas TALE-FokI)?); settings: HDR by RFLP, pig fibroblasts, 3 days 30 C; pair with P2, 16 bp spacer

AAGCACAATGATGATGC (double strand) [NF1 exon 42 site, 42.2 left half-site]
activity (% allele modification) [1]: 45.1

AAGTCAGAGTACATG (double strand) [TP53 exon 6 site, right half-site]
activity [2]: 11.8 % cutting

ACTGCGATCCTTGATA (double strand) [NF1 exon 42 site, 42.2 right half-site]
activity (% allele modification) [3]: 45.1

CCTTGATAAGCTGATA (double strand) [NF1 exon 42 site, 42.3 right half-site]
activity (% allele modification) [4]: 27.2

GATGATGCCAAACGAC (double strand) [NF1 exon 42 site, 42.3 left half-site]
activity (% allele modification) [5]: 27.2

GGCACCCGTGTCCGCGC (double strand) [TP53 exon 6 site, left half-site]
activity [6]: 11.8 % cutting

GTTACTGCGATCCTTG (double strand) [NF1 exon 42 site, 42.1 right half-site]
activity (% allele modification) [7]: 54.2

TGTAAGCACAATGATGA (double strand) [NF1 exon 42 site, 42.1 left half-site]
activity (% allele modification) [8]: 54.2
